Experimental data published in US20130296252A1 (University of Texas, published 2013).
Bridge positions count the residues as written; N and C are the ends. Ends that are not written are not given here.

B1: CLFMRLAWC-phage (phage displaying the cyclic peptide CLFMRLAWC) (peptide)
peptide: CLFMRLAWC
modifications: disulfide 1-9 (inferred); also: displayed on phage
notes: also called phage clone displaying the peptide motif Arg-Met-Phe-Leu
B2: mouse MUC18 (melanoma cell adhesion molecule) (receptor, UniProt Q8R2Y2 24-648, looked up)
chain: VPGEEKQPVPTPDLVEAEVGSTALLKCGPSRASGNFSQVDWFLIHKERQILIFRVHQGKGQREPGEYEHRLSLQDSVATLALSHVTPHDERMFLCKSKRPRLQDHYVELQVFKAPEEPTIQANVVGIHVDRQELREVATCVGRNGYPIPQVLWYKNSLPLQEEENRVHIQSSQIVESSGLYTLKSVLSARLVKEDKDAQFYCELSYRLPSGNHMKESKEVTVPVFYPAEKVWVEVEPVGLLKEGDHVTIRCLTDGNPQPHFTINKKDPSTGEMEEESTDENGLLSLEPAEKHHSGLYQCQSLDLETTITLSSDPLELLVNYVSDVQVNPTAPEVQEGESLTLTCEAESNQDLEFEWLRDKTGQLLGKGPVLQLNNVRREAGGRYLCMASVPRVPGLNRTQLVSVGIFGSPWMALKERKVWVQENAVLNLSCEASGHPQPTISWNVNGSATEWNPDPQTVVSTLNVLVTPELLETGAECTASNSLGSNTTTIVLKLVTLTTLIPDSSQTTGLSTLTVSPHTRANSTSTEKKLPQPESKGVVIVAVIVCTLVLAVLGAALYFFYKKGKLPCGRSGKQEITLPPTRKSEFVVEVKSDKLPEEMALLQGSNGDKRAPGDQGEKYIDLRH
notes: whole, on cells; Present on B16 melanoma cells before and after co-culture with B-1 lymphocytes; In the immunocapture assay it was captured from cell membrane extracts by anti-MUC18 antibody; In Western blot and co-IP it came from cell membrane extracts; also called MCAM; native mouse MUC18
B3: H111-S120 phage (phage clone displaying the mouse MUC18-derived peptide HDERMFLCKS, residues H111-S120 of MUC18) (peptide)
peptide: HDERMFLCKS
notes: also called MUC18-derived phage; MUC18-derived (H111-S120) phage

Tests used:
[1] = molecular target: B2; test: phage binding (relative TU) to B16 melanoma cells post versus pre co-culture with B-1 lymphocytes
[2] = molecular target: B2; test: phage binding (relative TU) to B16 melanoma cells post co-culture with B-1 lymphocytes
[3] = molecular target: the molecule itself; test: conclusion drawn from phage binding, immunocapture, antibody inhibition and shRNA experiments
[4] = molecular target: T1, human MUC18 on human melanoma cell lines (human, UniProt P43121 24-646); test: phage binding to a panel of 8 human melanoma cell lines
T1 construct: whole, on cells; also called MCAM; CD146
T1 sequence (looked up): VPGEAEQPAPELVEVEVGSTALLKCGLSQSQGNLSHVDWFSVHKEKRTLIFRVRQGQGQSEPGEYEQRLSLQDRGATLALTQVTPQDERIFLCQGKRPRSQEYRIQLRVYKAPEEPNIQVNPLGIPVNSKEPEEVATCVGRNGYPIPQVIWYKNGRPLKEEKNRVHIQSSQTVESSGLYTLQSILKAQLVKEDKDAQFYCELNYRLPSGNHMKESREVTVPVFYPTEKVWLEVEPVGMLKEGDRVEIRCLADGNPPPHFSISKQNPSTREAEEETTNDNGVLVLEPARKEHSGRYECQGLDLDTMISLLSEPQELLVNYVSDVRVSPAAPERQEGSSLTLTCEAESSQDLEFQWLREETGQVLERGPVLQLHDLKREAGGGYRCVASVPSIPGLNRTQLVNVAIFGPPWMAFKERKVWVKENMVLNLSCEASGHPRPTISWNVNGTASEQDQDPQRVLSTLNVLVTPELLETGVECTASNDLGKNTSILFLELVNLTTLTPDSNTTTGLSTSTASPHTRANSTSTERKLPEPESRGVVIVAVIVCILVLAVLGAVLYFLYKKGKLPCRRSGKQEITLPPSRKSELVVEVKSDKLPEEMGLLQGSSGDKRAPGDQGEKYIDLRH

[5] = molecular target: B2; test: phage binding to B16 melanoma cells post versus pre co-culture with B-1 lymphocytes
[6] = molecular target: B2; test: alanine-scanning phage binding to melanoma cells

B1
fold increase in phage binding relative to melanoma cells without co-culture with B-1 lymphocytes [1]: ~12 fold | fold increase in phage binding relative to control insertless phage [2]: ~20 fold

B2
binding result [3]: binds

B3
binding result [4]: binds | fold increase in phage binding relative to baseline binding to melanoma cells pre co-culture with B-1 lymphocytes [5]: 2.5 fold

HDERMFLAKS (Numbering counts on mouse MUC18) [H111-S120 phage with Cys118 mutated (alanine scanning)]
binding result [6]: no binding

HDERMFLCAS (Numbering counts on mouse MUC18) [H111-S120 phage with Lys119 mutated (alanine scanning)]
binding result [6]: no binding

HDERMFLCKA (Numbering counts on mouse MUC18) [H111-S120 phage with Ser120 mutated (alanine scanning)]
binding result [6]: no binding

HDEAMFLCKS (Numbering counts on mouse MUC18) [H111-S120 phage with Arg114 mutated (alanine scanning)]
binding result [6]: no binding
